Assay results from patent US20260273085A1 (HANSOH BIO, published 2026).
Substitutions are numbered along the chain they refer to. Values belong to the molecule of their own block, whether it stands above or below them.

How the values were obtained:
[1] = target: human CDH17 as originally expressed on cancer cells (AsPC1, GP2d and other CDH17 expressing cell lines) (human) (UniProt Q12864); assay: flow cytometry on AsPC1 cells, Alexa Fluor 647 labelled antibody
[2] = target: human CDH17 as originally expressed on cancer cells (AsPC1, GP2d and other CDH17 expressing cell lines) (human, UniProt Q12864 23-832); assay: cell-based or functional assay
[3] = target: T1, human CDH6-His tag (Acro Biosystems, catalog number CA6-H5229) (human, UniProt P55285 54-615); assay: BLI (Octet Red 384), antibody captured on AHC biosensor
T1 construct: Bought protein; also called hCDH6; not shown: His tag
T1 sequence (looked up): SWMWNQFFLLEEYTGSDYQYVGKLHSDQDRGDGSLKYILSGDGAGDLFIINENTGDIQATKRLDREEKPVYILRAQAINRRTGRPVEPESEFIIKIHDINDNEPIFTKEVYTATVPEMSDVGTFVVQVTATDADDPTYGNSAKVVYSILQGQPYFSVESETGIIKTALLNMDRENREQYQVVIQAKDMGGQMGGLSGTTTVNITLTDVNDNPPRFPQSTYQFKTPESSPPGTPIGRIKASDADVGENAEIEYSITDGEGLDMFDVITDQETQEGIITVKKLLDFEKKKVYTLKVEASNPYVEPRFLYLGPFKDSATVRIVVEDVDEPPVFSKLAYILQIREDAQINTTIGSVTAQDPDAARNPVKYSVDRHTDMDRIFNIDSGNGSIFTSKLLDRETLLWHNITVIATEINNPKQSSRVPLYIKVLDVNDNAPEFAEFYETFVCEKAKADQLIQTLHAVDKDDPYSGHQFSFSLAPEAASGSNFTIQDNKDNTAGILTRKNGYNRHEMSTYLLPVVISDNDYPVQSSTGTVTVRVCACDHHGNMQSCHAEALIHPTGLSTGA
Description: (§1) The affinity between CDH17 antibodies and CDH17 antigens and homologues was determined by Octet (Octet Red 384) instrument. Anti-hIgG Fc Capture (AHC) Biosensors were selected, and the sensors were balanced with buffer solution for 10 min. Subsequently, sensors were dipped into the wells containing 1 μg/ml of CDH17 lead antibodies to load onto the probes. The excess unbound antibodies were washed off. The antigen binding was performed in the wells containing serially diluted human CDH17-His tag (Sino biological, catalog number 11360-H08H), cynomolgus CDH17-His tag (Acro Biosystems, catalog number CA7-C52H4), homologs human CDH6-His tag (Acro Biosystems, catalog number CA6-H5229) and human CDH16-His tag (Sino biological, catalog number 10915-H08H), with concentration ranging from 200 nM to 3.1 nM, for 5 min. Then probes were dipped into wells containing renewed buffer to initiate the dissociation for another 15 min.

[4] = target: T2, human CDH16-His tag (Sino biological, catalog number 10915-H08H) (human, UniProt O75309 19-786); assay: as above
T2 construct: Bought protein; also called hCDH16; not shown: His tag
T2 sequence (looked up): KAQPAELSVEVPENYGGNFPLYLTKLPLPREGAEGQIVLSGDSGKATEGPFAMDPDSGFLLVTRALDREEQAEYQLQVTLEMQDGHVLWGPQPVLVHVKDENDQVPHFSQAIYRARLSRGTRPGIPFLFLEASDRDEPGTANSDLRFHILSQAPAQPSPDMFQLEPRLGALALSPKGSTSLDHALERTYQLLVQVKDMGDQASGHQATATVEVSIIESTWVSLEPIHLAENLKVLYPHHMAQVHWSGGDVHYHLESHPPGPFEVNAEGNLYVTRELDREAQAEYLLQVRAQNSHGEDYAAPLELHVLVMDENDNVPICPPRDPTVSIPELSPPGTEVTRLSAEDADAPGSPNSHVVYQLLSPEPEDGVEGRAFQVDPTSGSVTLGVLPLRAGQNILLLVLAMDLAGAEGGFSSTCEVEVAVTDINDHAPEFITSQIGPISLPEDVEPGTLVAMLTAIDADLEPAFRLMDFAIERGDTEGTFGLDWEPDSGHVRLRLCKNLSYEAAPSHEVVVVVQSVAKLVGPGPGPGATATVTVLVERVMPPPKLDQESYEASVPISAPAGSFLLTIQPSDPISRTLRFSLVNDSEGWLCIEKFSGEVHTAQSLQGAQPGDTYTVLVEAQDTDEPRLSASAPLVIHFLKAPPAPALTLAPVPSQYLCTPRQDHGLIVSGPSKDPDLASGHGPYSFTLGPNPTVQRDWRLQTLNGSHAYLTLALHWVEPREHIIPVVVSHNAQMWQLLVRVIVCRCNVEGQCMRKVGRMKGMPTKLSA
Description: as §1

[5] = target: T3, cynomolgus CDH17-His tag (Acro Biosystems, catalog number CA7-C52H4) (cynomolgus, UniProt A0A2K5X8I8 31-795); assay: BLI (Octet Red 384), antibody captured on AHC biosensor, antigen 200 nM to 3.1 nM
T3 construct: Bought protein; also called cCDH17; cynomolgus CDH17 protein; not shown: His tag
Description: as §1

T3 sequence (A0A2K5X8I8 entry or part of it, form in doubt): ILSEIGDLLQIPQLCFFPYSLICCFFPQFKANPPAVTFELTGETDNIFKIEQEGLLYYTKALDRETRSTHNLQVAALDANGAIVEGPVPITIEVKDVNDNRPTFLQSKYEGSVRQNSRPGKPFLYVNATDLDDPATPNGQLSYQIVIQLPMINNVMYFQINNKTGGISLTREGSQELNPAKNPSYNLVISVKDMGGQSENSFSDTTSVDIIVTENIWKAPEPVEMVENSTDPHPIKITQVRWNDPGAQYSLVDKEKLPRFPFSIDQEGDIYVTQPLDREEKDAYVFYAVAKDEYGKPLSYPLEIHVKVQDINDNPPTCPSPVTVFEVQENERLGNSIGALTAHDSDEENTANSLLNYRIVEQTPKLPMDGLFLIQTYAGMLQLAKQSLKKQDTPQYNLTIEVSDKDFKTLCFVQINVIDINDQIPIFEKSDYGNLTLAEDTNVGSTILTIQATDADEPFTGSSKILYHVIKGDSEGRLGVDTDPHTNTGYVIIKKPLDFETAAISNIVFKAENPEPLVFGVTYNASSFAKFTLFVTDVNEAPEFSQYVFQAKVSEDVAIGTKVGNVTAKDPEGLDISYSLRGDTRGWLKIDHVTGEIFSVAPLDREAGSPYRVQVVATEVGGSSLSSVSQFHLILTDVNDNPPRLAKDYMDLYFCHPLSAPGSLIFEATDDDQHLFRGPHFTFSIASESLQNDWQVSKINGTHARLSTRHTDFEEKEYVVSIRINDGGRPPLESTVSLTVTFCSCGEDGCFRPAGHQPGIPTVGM

EC80 [1]: 0.97 nM
Molecule: HBMAB-81, reformatted mAb with the CDH17 binding arm from bispecific antibody BI 905771 and human IgG1 backbone

B1: 4F9 anti-CDH17 recombinant antibody (human IgG1) (antibody, V domains shown)
VH: QVQLQESGPGLVKPSGTLSLTCAVSGGSISSSNWWSWVRQPPGKGLEWIGEIYHSGSTSYNPSLKSRVTISVDKSKNQFSLKLSSVTAADTAVYYCARNDWGFPLDCWGQGTLVTVSS
VL: DIQMTQSPSSLSASVGDRVTITCRASQSISSYLNWYQQKPGKAPKLLIYAASSLQSGVPSRFSGSGSGTHFTLTISSLQPEDFATYYCQQSHNIPITFGQGTRLEIKR
IC50 of indirect killing assay (internalization) in AsPC1 cells, complex with Fab anti-human IgG Fc-MMAF [2]: 0.29 nM

B2: 14B12 anti-CDH17 recombinant antibody (human IgG1) (antibody, V domains shown)
VH: QVQLQESGPGLVKPSETLSLTCTVSGGSINTYYRSWIRQPPGKGLEWIGYIYYSGNTNYNPSLKSRVTISADTSKNQFSLNLISVTAADTAMYYCARAQYGEEAFDIWGQGTLVTVSS
VL: DIQMTQSPSSLSASVGDRVTITCRASQSITTYLNWYQQKPGKAPQLLIFAASRLQTGVPSRFSGSGSGTDFTLTISSLLPGDFATYYCQQSYNTPPTFGGGTKVEIKR
notes: Recombinant human IgG1 / kappa, expressed in CHO or ExpiCHO-S cells
IC50 of indirect killing assay (internalization) in AsPC1 cells, complex with Fab anti-human IgG Fc-MMAF [2]: 0.09 nM | binding result [3]: no binding (tested: 200 nM highest antigen concentration) | binding result [4]: no binding (tested: 200 nM highest antigen concentration)

B3: 17F3 anti-CDH17 recombinant antibody (human IgG1) (antibody, V domains shown)
VH: EVQLVESGGGLVKSGGSLRLSCAASGFTFSSYSLKWVRQAPGKGLEWVSSISSSSGYIYYADSVKGRFTISRDNAKNSLYLQMNSLRAEDTAMYYCARAVSTIAARPGYYYYYMDVWGKGTLVTVSS
VL: DIQMTQSPSSVSASIGDRVTITCRASQDISTWFAWYQQKPGKAPKLLIYAASTLRSGVPSRFSGSGSGTDFTLTINSLQPEDFATYYCQQANSFPLTFGGGTKVEIKR
IC50 of indirect killing assay (internalization) in AsPC1 cells, complex with Fab anti-human IgG Fc-MMAF [2]: 0.08 nM

B4: 13C7 anti-CDH17 recombinant antibody (human IgG1) (antibody, V domains shown)
VH: QITLKESGPTLVKPTQTLTLTCTFSGFSLSTSGVGVGWIRQPPGKALEWLALIYWNDDKRYRPSLKNRLTITKDTSKNQVVLTMTNMDPVDTATYYCTHYGVTAPFYNWFDPWGQGTLVTVSS
VL: DIQMTQSPSSLSASVGDRVTITCRASQSITSYLNWYQQKPGKAPKLLIYAASSLQSGVPSRFSGSGSGTDFTLTISSLQPEDFATYYCQRSYSTLTFGGGTKVEIKR
IC50 of indirect killing assay (internalization) in AsPC1 cells, complex with Fab anti-human IgG Fc-MMAF [2]: 0.09 nM

B5: 19C7 anti-CDH17 recombinant antibody (human IgG1) (antibody, V domains shown)
VH: B4 VH with F27I, S32G, A51S, R62S, N67S, T75S, T98A, Y100S, V102L, T103A
VL: B4 VL with T30S, S31N, Q38L, K42N, Y49F, Y87F
IC50 of indirect killing assay (internalization) in AsPC1 cells, complex with Fab anti-human IgG Fc-MMAF [2]: 0.09 nM

B6: 2F9 anti-CDH17 recombinant antibody (human IgG1) (antibody, V domains shown)
VH: EVQLVESGGGVVRPGGSLRLSCAASGFTFDDYGMSWVRQAPGKGLEWVSGLSWNGGNTYYADSVKGRFTISRDNAKNSLYLQMNSLRAEDTALYYCARGSRYNWNYDAFDIWGQGTLVTVSS
VL: DIQMTQSPSSLSASIGDRVTITCRASQGIRNALGWYQQKPGKAPKRLIYAASNLQSGVPSRFSGSGSGTEFTLTISSLQPEDFATYYCLQHNSYPFTFGPGTKVEIKR
IC50 of indirect killing assay (internalization) in AsPC1 cells, complex with Fab anti-human IgG Fc-MMAF [2]: 0.14 nM

B7: 9E2 anti-CDH17 recombinant antibody (human IgG1) (antibody, V domains shown)
VH: B6 VH with D31N, L51I, S52N, N57S, K65R, N105S
VL: B6 VL with I15V, I29V, N53S
IC50 of indirect killing assay (internalization) in AsPC1 cells, complex with Fab anti-human IgG Fc-MMAF [2]: 0.15 nM

B8: 1H10 anti-CDH17 recombinant antibody (human IgG1) (antibody, V domains shown)
VH: QVQLVESGGGVVQPGRSLRLSCVASGFTFSSYGMHWVRQAPGKGLEWVTFIWYDGSNKNYADSVKGRFTISRDNSKNTLNLQMNSLRVEDTAVYYCARDRYSSGWDVFDYWGQGTLVTVSS
VL: DIQMTQSPSSVSASVGDRVTITCRASQDISSWLAWYQQQPGKAPKLQIYAASSLQSGVPSRFSGSGSGTDFTLTISSLQPEDFATYYCQQAKSFPPTFGQGTKVEIKR
IC50 of indirect killing assay (internalization) in AsPC1 cells, complex with Fab anti-human IgG Fc-MMAF [2]: 0.19 nM

Kd [5]: 15 nM | koff [5]: 0.0012 s⁻¹ | kon [5]: 80000 M⁻¹ s⁻¹
B9: 10E11 anti-CDH17 recombinant antibody (human IgG1) (antibody, V domains shown)
VH: EVQLVQSGTEVKKPGESLKISCKDSGYRFSSYWIGWVRQMPGKGLEWMGIIYPGDSDTRYSPSFQGQVTISADKSISTAYLQWRSLKASDTAMYYCARRGWVNYFDYWGQGTLVTVSS
VL: B3 VL with I15V, D28G, T31N, F33L, A34G, T53S, R55Q, N76S
notes: as for B2
IC50 of indirect killing assay (internalization) in AsPC1 cells, complex with Fab anti-human IgG Fc-MMAF [2]: 0.08 nM | binding result [3]: no binding (tested: 200 nM highest antigen concentration) | binding result [4]: no binding (tested: 200 nM highest antigen concentration)

B10: 15A4 anti-CDH17 recombinant antibody (human IgG1) (antibody, V domains shown)
VH: B8 VH with V23A, T28N, T49A, I51V, K58Q, K76N, N80Y, V88A
VL: B8 VL with D28G, Q39K, Q47L, Y49F, D70G
IC50 of indirect killing assay (internalization) in AsPC1 cells, complex with Fab anti-human IgG Fc-MMAF [2]: 1.99 nM
